{"source": "patent US10597674B2", "about": "“HPPD variants and methods of use” (BASF Agricultural Solutions Seed, US LLC, priority 2015, dated 2020)", "molecules": {"B1": {"name": "97 (protein)", "chain": "MADLYENPMGLMGFEFIEFASPTPGTLEPIFEIMGFTKVATHRSKNVHLYRQGEINLILNNEPNSIASYFAAEHGPSVCGMAFRVKDSQKAYNRALELGAQPIHIDTGPMELNLPAIKGIGGAPLYLIDRFGEGSSIYDIDFVYLEGVERNPVGAGLKVIDHLTHNVYRGRMVYWANFYEKLFNFREARYFDIKGEYTGLTSKAMSAPDGMIRIPLNEESSKGAGQIEEFLMQFNGEGIQHVAFLTDDLVKTWDALKKIGMRFMTAPGDRYYEMLEGRLPDHGEPVDQLQARGILLDGSSVEGDKRLLLQIFSETLMGPVFFEFIQRKGHSGFGPDSFKVLFESKERDQVRRGVLTAD", "modifications": "mutant HPPD polypeptide"}, "B2": {"name": "102 (protein)", "chain": "B1 chain with M264L, G268R, R270E, T315R, H330D, S331D, D336H, S344Q, K345M", "modifications": "mutant HPPD polypeptide"}, "B3": {"name": "106 (protein)", "chain": "B1 chain with M264L, R270E, S331P, S344Q, K345M", "modifications": "mutant HPPD polypeptide"}, "B4": {"name": "100 (protein)", "chain": "B1 chain with M264L, R270E, S331D, S344Q, K345M", "modifications": "mutant HPPD polypeptide"}, "B5": {"name": "107 (protein)", "chain": "B1 chain with R213K, R270E, H330D, S331D, D336H, F338V, V340R, K345V", "modifications": "mutant HPPD polypeptide"}, "B6": {"name": "99 (protein)", "chain": "B1 chain with R270E, H330D, S331D, F338V, V340R, K345V", "modifications": "mutant HPPD polypeptide"}, "B7": {"name": "SEQ ID NO: 30: mutant HPPD polypeptide: P268S T270S E335P G336H N337S A340V I345K (protein)", "chain": "B1 chain with G268S, R270S, H330D, S331D, D336H", "modifications": "mutant HPPD polypeptide", "notes": "mutant HPPD polypeptide: P268S T270S E335P G336H N337S A340V I345K"}, "B8": {"name": "SEQ ID NO: 42: mutant HPPD polypeptide: A204T P268G T270E E335P G336D N337S A340V I345V (protein)", "chain": "B1 chain with A204T, R270E, H330D, S331D, K345V", "modifications": "mutant HPPD polypeptide", "notes": "mutant HPPD polypeptide: A204T P268G T270E E335P G336D N337S A340V I345V"}, "B9": {"name": "SEQ ID NO: 43: mutant HPPD polypeptide: R213K P268G T270E E335P G336D N337S A340V I345V (protein)", "chain": "B1 chain with R213K, R270E, H330D, S331D, K345V", "modifications": "mutant HPPD polypeptide", "notes": "mutant HPPD polypeptide: R213K P268G T270E E335P G336D N337S A340V I345V"}, "B10": {"name": "SEQ ID NO: 34: mutant HPPD polypeptide: P268G T270E D330H E335P G336D N337S A340R I345K (protein)", "chain": "B1 chain with R270E, S331D, V340R", "modifications": "mutant HPPD polypeptide", "notes": "mutant HPPD polypeptide: P268G T270E D330H E335P G336D N337S A340R I345K"}, "B11": {"name": "SEQ ID NO: 21: mutant HPPD polypeptide: E335P G336H N337S (protein)", "chain": "B1 chain with G268P, R270T, H330D, S331D, D336H, V340A, K345I", "modifications": "mutant HPPD polypeptide", "notes": "mutant HPPD polypeptide: E335P G336H N337S"}, "B12": {"name": "SEQ ID NO: 9: mutant HPPD polypeptide: E335P G336D N337S I345V (protein)", "chain": "B1 chain with G268P, R270T, H330D, S331D, V340A, K345V", "modifications": "mutant HPPD polypeptide", "notes": "mutant HPPD polypeptide: E335P G336D N337S I345V"}, "B13": {"name": "SEQ ID NO: 45: mutant HPPD polypeptide: P268G T270E T315R E335P G336D N337S A340V I345V (protein)", "chain": "B1 chain with R270E, T315R, H330D, S331D, K345V", "modifications": "mutant HPPD polypeptide", "notes": "mutant HPPD polypeptide: P268G T270E T315R E335P G336D N337S A340V I345V"}, "B14": {"name": "SEQ ID NO: 5: mutant HPPD polypeptide: E335P N337S (protein)", "chain": "B1 chain with G268P, R270T, H330D, S331D, D336G, V340A, K345I", "modifications": "mutant HPPD polypeptide", "notes": "mutant HPPD polypeptide: E335P N337S"}, "B15": {"name": "SEQ ID NO: 44: mutant HPPD polypeptide: R213L P268G T270E E335P G336D N337S A340V I345V (protein)", "chain": "B1 chain with R213L, R270E, H330D, S331D, K345V", "modifications": "mutant HPPD polypeptide", "notes": "mutant HPPD polypeptide: R213L P268G T270E E335P G336D N337S A340V I345V"}}, "note": "Residue numbers refer to the chain shown, from its start. In names and notes the source's numbering stands.", "data": [{"test_system": "E. coli cells expressing an HPPD polypeptide", "assay": "Brown color bioassay in liquid culture, residual brown color formation (BCF), OD440 after 96 hours", "type": "cell-based", "settings": "brown color formation in absence of Cmpd. 1, culture supernatant after 96 hours, 5 mM HPP", "procedure": "(§1) In an additional experiment, mutant HPPD polypeptides were analyzed using the principle of a colorimetric brown color assay (as, for example, described in U.S. Pat. No. 6,768,044). Bacterial cells expressing the HPPD polypeptides according to this invention were assayed in 96 well plate format (Nunc® 96 DeepWell™ plate, Sigma-Aldrich, St. Louis, USA) for HPPD polypeptides with improved HPPD inhibitor herbicide tolerance.\n(§2) E. coli cells were grown in liquid LB medium (Carl Roth GmbH+Co. KG, Karlsruhe, Germany) containing the selection agent for the expression vector pSE420(RI)NX (WO2014/043435) and 5 mM para-hydroxyphenylpyruvate (HPP; Sigma-Aldrich, St. Louis, USA), in the presence of absence of the HPPD inhibitor herbicide e.g. Cmpd. 1 (1000 μM). An overnight culture of E. coli culture expressing one of the respective HPPD polypeptides according to this invention were adjusted to an OD600 of 0.3-0.5 in a final volume of 500 μL and incubated at 30 degree Celsius. Residual brown color formation was determined by measuring the brown color formation (BCF) in the presence and absence of Cmpd. […] Therefore, after 96 hours the culture was centrifuged and the supernatant of the culture was used to measure the optical density of the soluble brown pigment formation at 440 nm (OD440 nm).", "values": [{"molecule": "B1", "Control BCF OD440nm": 1.54}, {"molecule": "B2", "Control BCF OD440nm": 2.47}, {"molecule": "B3", "Control BCF OD440nm": 1.50}, {"molecule": "B4", "Control BCF OD440nm": 2.48}, {"molecule": "B5", "Control BCF OD440nm": 1.38}, {"molecule": "B6", "Control BCF OD440nm": 1.52}]}, {"test_system": "E. coli cells expressing an HPPD polypeptide", "assay": "Brown color bioassay in liquid culture, residual brown color formation (BCF), OD440 after 96 hours", "type": "cell-based", "settings": "brown color formation with Cmpd. 1 (1000 μM) relative to without, after 96 hours", "procedure": "as §1, §2", "units": {"Residual BCF OD440nm [%]": "%"}, "values": [{"molecule": "B1", "Residual BCF OD440nm [%]": 49}, {"molecule": "B2", "Residual BCF OD440nm [%]": 26}, {"molecule": "B3", "Residual BCF OD440nm [%]": 73}, {"molecule": "B4", "Residual BCF OD440nm [%]": 33}, {"molecule": "B5", "Residual BCF OD440nm [%]": 84}, {"molecule": "B6", "Residual BCF OD440nm [%]": 87}]}, {"test_system": "transgenic soybean T0 events", "assay": "Additional greenhouse trials of T0 soybean events, leaf damage score 0-100 as percentiles", "type": "in vivo", "settings": "Cmpd. 1 300 g AI/ha, five days; 75th minus 25th percentile", "text": "(§3) In additional greenhouse trials, 21 to 94 independent T0 soybean events per construct containing an exemplary mutant HPPD polypeptide were sprayed with the HPPD inhibitor herbicide Cmpd. […] Five days after the application, the leaf damaged area due to the HPPD inhibitor herbicide is scored in a scale from 0 (no damage) to 100 (complete bleaching). Under those conditions, the wild-type plants were completely bleached and their damage scores were in the 95-100 range.\n(§4) Table 9 presents the distribution of the HPPD inhibitor herbicide damage score data as percentile for exemplary mutant HPPD inhibitor herbicide tolerant polypeptides (SEQ ID NOs). The percentiles normalize ranks of the damage score from an individual plant in a population. […] The median is the 50th percentile. Half the values had higher damage scores; half had lower damage scores. […] The difference between the 75th and 25th percentile is called the interquartile range and a marker to quantify scattering in the population. All constructs had only one single cassette insertion in the soybean genome.\n(§5) In Table 9, the constructs were ranked based on injury scores according to the 75th percentile, from smallest to highest score. All exemplary HPPD polypeptide variants are better in all percentile analyses than the prior art mutant HPPD polypeptide (WO2014/043435) corresponding to SEQ ID NO:2 in this invention. The scoring of the prior art mutant HPPD polypeptide (WO2014/043435) corresponding to SEQ ID NO:2 in this invention is listed in the bottom row of Table 9.", "values": [{"molecule": "B7", "leaf damage score, Interquartile range": 5.0}, {"molecule": "B8", "leaf damage score, Interquartile range": 10.0}, {"molecule": "B9", "leaf damage score, Interquartile range": 10.0}, {"molecule": "B10", "leaf damage score, Interquartile range": 10.0}, {"molecule": "B11", "leaf damage score, Interquartile range": 15.0}, {"molecule": "B12", "leaf damage score, Interquartile range": 5.0}, {"molecule": "B13", "leaf damage score, Interquartile range": 21.3}, {"molecule": "B14", "leaf damage score, Interquartile range": 10.0}, {"molecule": "B15", "leaf damage score, Interquartile range": 11.3}]}, {"test_system": "transgenic soybean T0 events", "assay": "Additional greenhouse trials of T0 soybean events, leaf damage score 0-100 as percentiles", "type": "in vivo", "settings": "Cmpd. 1 300 g AI/ha, five days; scale 0 (no damage) to 100 (complete bleaching)", "text": "as §3, §4, §5", "values": [{"molecule": "B7", "leaf damage score, 25th percentile": 10.0}, {"molecule": "B8", "leaf damage score, 25th percentile": 10.0}, {"molecule": "B9", "leaf damage score, 25th percentile": 10.0}, {"molecule": "B10", "leaf damage score, 25th percentile": 10.0}, {"molecule": "B11", "leaf damage score, 25th percentile": 10.0}, {"molecule": "B12", "leaf damage score, 25th percentile": 10.0}, {"molecule": "B13", "leaf damage score, 25th percentile": 5.0}, {"molecule": "B14", "leaf damage score, 25th percentile": 10.0}, {"molecule": "B15", "leaf damage score, 25th percentile": 10.0}]}, {"test_system": "transgenic soybean T0 events", "assay": "Additional greenhouse trials of T0 soybean events, leaf damage score 0-100 as percentiles", "type": "in vivo", "settings": "Cmpd. 1 300 g AI/ha, five days; scale 0-100", "text": "as §3, §4, §5", "values": [{"molecule": "B7", "leaf damage score, 75th percentile": 15.0, "leaf damage score, 90th percentile": 25.0, "leaf damage score, Median": 15.0}, {"molecule": "B8", "leaf damage score, 75th percentile": 20.0, "leaf damage score, 90th percentile": 75.0, "leaf damage score, Median": 15.0}, {"molecule": "B9", "leaf damage score, 75th percentile": 20.0, "leaf damage score, 90th percentile": 67.0, "leaf damage score, Median": 15.0}, {"molecule": "B10", "leaf damage score, 75th percentile": 20.0, "leaf damage score, 90th percentile": 70.0, "leaf damage score, Median": 15.0}, {"molecule": "B11", "leaf damage score, 75th percentile": 25.0, "leaf damage score, 90th percentile": 35.0, "leaf damage score, Median": 15.0}, {"molecule": "B12", "leaf damage score, 75th percentile": 15.0, "leaf damage score, 90th percentile": 19.0, "leaf damage score, Median": 10.0}, {"molecule": "B13", "leaf damage score, 75th percentile": 26.3, "leaf damage score, 90th percentile": 67.5, "leaf damage score, Median": 15.0}, {"molecule": "B14", "leaf damage score, 75th percentile": 20.0, "leaf damage score, 90th percentile": 72.0, "leaf damage score, Median": 15.0}, {"molecule": "B15", "leaf damage score, 75th percentile": 21.3, "leaf damage score, 90th percentile": 70.0, "leaf damage score, Median": 15.0}]}]}
